Data as given in the DeepSol protein solubility set.

Assay: soluble on expression in E. coli; label from the status in PepcDB or PDB records
With “GPGSMWFNHRIRQRGLTPVLVNTLQKRLTCSLTRICLCDCKDASGREGVSSSTSGSVPSRMTSQNPPPRPPPTTPAATPGGVQYNTRRESEAVAIEQRRQQQQRATDAQRRGEEPLPEQSESEMARWWPEENQNWSGRMFASPLDKNKKKFDGMFVPEMKEVHGPDKPLELSYAGDNFFLNPDFHMADEVFDETRRFVPPPSFDPAVDEIDDEGFVDGQVMFDIQKAVDEDRRRLEAFGNPLLVEDQVDYLLQPQREGQENIQQRQEFNGFVHWGLLHGAHMIIEENQDYKKAHEFVNRYMRDIDLFQKWLEHPKVRAHIQKKFGVDMHAKFDKLMALVMAMYARSKIQVYEDDPAGALKSLTACMSFINEGADLKKERHRKAIGAVLAARGMVYCKLKSYDRAEDDLTRALRFVNQKRCATLFQLRAEAREALGRIEEARLDEERAAEIWENAEVIAPGMSGKPYKFVL” the “soluble on expression in E. coli” value was “not soluble”. With “GPGSMWGRYVRVCTREQHSRKQLTSAGVPQGGVPGPKLFLHCVDDLLHRMDNIYSASAFMHADDLKLVASGADIHACAAAMQPALPLITKWAAEHSLKINVAKSESALFHISSHTRSDEDMVDLLPGNGNLRIQSCPVRLLDTTFDRLLNFGPHASTAAKRTMPRRYQLRPVAQAGASHHNTQSFSIGYVHIVLFHNGDAILPCFAHIYLHNMEVRYRDGRKTFLA” the “soluble on expression in E. coli” value was “not soluble”. With “GPGSMYSKTPCVLGMPYEAAGAVLCNNPYRSQALSWYRKFLKAAFTVPWETDDDALYVMEESRRLFRQNARLTDVEMIQRKLREAEMRYELGVHYRIPYPRPVHKMQGSLQESGVPYAADLDSMYDHPVNPRTGRISEGSANYGVMGGVDNSNELLEGEMGADAEDFSK” the “soluble on expression in E. coli” value was “soluble”. In the case of “GPHMSVSESAVFAYESSVHSTNVLLSLNDQRKKDVLCDVTVLVEGQRFRAHRSVLAACSSYFHSRIVGQTDAELTVTLPEEVTVKGFEPLIQFAYTAKLILSKDNVDEVCRCVEFLSVHNIEESCFQFLKFKFLDSTS”, the “soluble on expression in E. coli” value is reported as “soluble”. In the case of “GPLGSAGKSSLFKIILLGDGGVGKSSLMNRYVTNKFDSQLFHTIGVEFLNKDLEVDGHFVTMQIWDTAGQERFRSLRTPFYRGSDCCLLTFSVDDSQSFQNLSNWKKEFIYYADVKEPESFPFVILGNKTDIKERQVSTEEAQAWCKDNGDYPYFETSAKDSTNVAAAFEEAVRRILAT”, the “soluble on expression in E. coli” value is reported as “soluble”. In the case of “GPLGSETITVPTPIKQIFSDDAFAETIKDNLKKKSVTDAVTQNELNSIDQIIANNSDIKSVQGIQYLPNVTKLFLNGNKLTDIKPLANLKNLGWLFLDENKVKDLSSLKDLKKLKSLSLEHNGISDINGLVHLPQLESLYLGNNKITDITVLSRLTKLDTLSLEDNQISDIVPLAGLTKLQNLYLSKNHISDLRALAGLKNLDVLELFSQECLNKPINHQSNLVVPNTVKNTDGSLVTPEIISDDGDYEKPNVKWHLPEFTNEVSFIFYQPVTIGKAKARFHGRVTQPLKE”, the “soluble on expression in E. coli” value is reported as “soluble”. With “GPLGSGALKWVLCNYDFQARNSSELSVKQRDVLEVLDDSRKWWKVRDPAGQEGYVPYNILTPYPAAAS” the “soluble on expression in E. coli” value was “soluble”. For “GPLGSMSVAGLKKQFHKATQKVSEKVGGAEGTKLDDDFKEMERKVDVTSRAVMEIMTKTIEYLAHLSSLLQAEALLAEAMLKFGRELGDDCNFGPALGEVGEAMRELSEVKDSLDIEVKQNFIDPLQNLHDKDLREIQHHLKKLEGRRLDFDYKKKRQGKIPDEELRQALEKFDESKEIAESSMFNLLEMDIEQVSQLSALVQAQLEYHKQAVQILQQVTVRLEERIRQA”, the “soluble on expression in E. coli” value was “soluble”. For “GPMRRERGRQGDSSSCERQVDRVNLKPCEQHIMQRIMGEQEQYDSYDIRSTRSSDQQQRCCDELNEMENTQGCMCEALQQIMENQCDRLQDRQMVQQFKRELMSLPQQCNFRAPQRCDLDVSGGRCS”, the “soluble on expression in E. coli” value was “soluble”. With “GPVDPVKTFSEVLAAVEDRTISKELLDEKCRKILAFKYALIICKGISKELPAEEVVRQVNSREAERMSEDLWQASITILKNKKHFLPLSEGNRIACVNLDGAASNTFTQELGLTSKDCYSYAKGSNSTRTQELLSKLKGYDAVIVTVRHTQPDWAGTFLHRLTEQNHTAIVFFTSPYVADRIPAAMDKARAIVVAYENVKEAARMAAYKIRDRVVVSSGGGIPVVQEEEDTDPTANMMPPTELSSGLIPMPA” the “soluble on expression in E. coli” value was “not soluble”. For “GPVKLRLTVLCAKNLVKKDFFRLPDPFAKVVVDGSGQCHSTDTVKNTLDPKWNQHYDLYIGKSDSVTISVWNHKKIHKKQGAGFLGCVRLLSNAINRLKDTGYQRLDLCKLGPNDNDTVRGQIVVSLQSRD”, the “soluble on expression in E. coli” value was “soluble”. In the case of “GQLDDVLMPYVGDQTEAQIYKKLRHFWIMLDRTLPDAFMHVNIGPTDNIICRTILRVDAELKQIAPNLTFMYDESITPDDLLRQATKNICDCSKPHIANYPIHANAYDGERFGIVSCYNSLPLAGGSNTLVRMNLKEVAKRAASRDDFFSNVLPTYHQLMTELMDARSSHLHEQSQFFQGFLTQEGLIEESRFAPMYGIYGMAEAVNLLLEKEGQTSRYGQDERANALGHEISASLATLVDSTPVRYGLEGKALLHAQGGISLDLDVTPGVRLPYGNEPDPVTYVQATAAHHQYYRAGISDILTIDETVKSNPEAMFNLCKGALNAGYREFTANVASNDLVRVTGYMVKLSDIAKYDAEGSRTNTTFLGAEAAKNTGILERSPRVVSQEMSPVYK”, the “soluble on expression in E. coli” value is reported as “not soluble”. For “GQQKNMENKTLNENIPEMIISLEKEALASTDPMAFVELSDTDVIYFDPSLETKIEGLEQLRTYYKGMQLPPADHFDMIRPVVQVAQNIAVLTFNLDSYLSDKVIKWNCTEVYRRNPDNQWKIIQTHWSYVKPLD”, the “soluble on expression in E. coli” value was “soluble”. For “GRTVVVTTIMESPYVMYKKNHEMFEGNDKYEGYCVDLASEIAKHIGIKYKIAIVPDGKYGARDADTKIWNGMVGELVYGKAEIAIAPLTITLVREEVIDFSKPFMSLGISIMIKKGTPIESAEDLAKQTEIAYGTLDSGSTKEFFRRSKIAVYEKMWTYMRSAEPSVFTRTTAEGVARVRKSKGKFAFLLESTMNEYIEQRKPCDTMKVGGNLDSKGYGVATPKGSSLRTPVNLAVLKLSEAGVLDKLKNKWWYDKGECG”, the “soluble on expression in E. coli” value was “soluble”. In the case of “GSADAPRDRHRTIVVGGDRDYPPYEFIDQNGKPAGYNVELTRAIAEVMGMTVEFRLGAWSEMFSALKSGRVDVLQGISWSEKRARQIDFTPPHTIVYHAIFARRDSPPAAGLEDLRGRKVALHRDGIMHEYLAERGYGKDLVLTPTPADALRLLAAGGCDYAVVAMVPGMYIIRENRLTNLVPVARSIAAQRYGYAVRQGDAELLARFSEGLAILRKTGQYEAIRAKWLGVLEP”, the “soluble on expression in E. coli” value is reported as “soluble”. For “GSAMASNAVLYKSNHNVVYSCKYHIVWCPKYRRKVLVGAVEMRLKEIIQEVAKELRVEIIEMQTDKDHIHILADIDPSFGVMKFIKTAKGRSSRILRQEFNHLKTKLPTLWTNSCFISTVGGAPLNVVKQYIENQQNSNRPKQKEKWKSYVDNLQTKAL”, the “soluble on expression in E. coli” value was “soluble”. For “GSCEKENIGIEVTPVNAKFIITPVVIDATTGTDVTQSAEISFSKGNGTYEGTPELASESININAKYKGMTGSASVTIPALKAGQFGAKEVTIILSENFFAQEESSNSQIETTKHSGFKNNTSDYWYYITVTYTKKEGSEVIKNDYEGDDSEIKNIIDAYNKGVREDKVTLNDVQVLAHSRFSVFVDYMKTTSVYQIIEKSPKRDGNPVASFTVDSYNTIVSPKNEQIPGHGHAPSHGHGHGHGDDSNAGGGIIIAD”, the “soluble on expression in E. coli” value was “soluble”. In the case of “GSEVAIKMVVVGNGAVGKSSMIQRYCKGIFTKDYKKTIGVDFLERQIQVNDEDVRLMLWDTAGQEEFDAITKAYYRGAQACVLVFSTTDRESFEAISSWREKVVAEVGDIPTALVQNKIDLLDDSCIKNEEAEGLAKRLKLRFYRTSVKEDLNVSEVFKYLAEKHLQK”, the “soluble on expression in E. coli” value is reported as “soluble”. For “GSFIDIEFPEWFHEGLSRHQAENLLMGKDIGFFIIRASQSSPGDFSISVRHEDDVQHFKVMRDTKGNYFLWTEKFPSLNKLVDYYRTTSISKQKQVFLRD”, the “soluble on expression in E. coli” value was “soluble”. With “GSFTMADLDDIKDGKDFRTDQPQKNIPFTLKGCGALDWGMQSRLSRIFNPKTGKTVMLAFDHGYFQGPTTGLERIDINIAPLFEHADVLMCTRGILRSVVPPATNRPVVLRASGANSILAELSNEAVALSMDDAVRLNSCAVAAQVYIGSEYEHQSIKNIIQLVDAGMKVGMPTMAVTGVGKDMVRDQRYFSLATRIAAEMGAQIIKTYYVEKGFERIVAGCPVPIVIAGGKKLPEREALEMCWQAIDQGASGVDMGRNIFQSDHPVAMMKAVQAVVHHNETADRAYELYLSEKQ” the “soluble on expression in E. coli” value was “soluble”. For “GSGYREVEYWDQRYQGAADSAPYDWFGDFSSFRALLEPELRPEDRILVLGCGNSALSYELFLGGFPNVTSVDYSSVVVAAMQACYAHVPQLRWETMDVRKLDFPSASFDVVLEKGTLDALLAGERDPWTVSSEGVHTVDQVLSEVSRVLVPGGRFISMTSAAPHFRTRHYAQAYYGWSLRHATYGSGFHFHLYLMHKGGKLSVAQLALGAQILSP”, the “soluble on expression in E. coli” value was “soluble”. In the case of “GSHGMRVIIAGFGRFGQITGRLLLSSGVKMVVLDHDPDHIETLRKFGMKVFYGDATRMDLLESAGAAKAEVLINAIDDPQTNLQLTEMVKEHFPHLQIIARARDVDHYIRLRQAGVEKPERETFEGALKTGRLALESLGLGPYEARERADVFRRFNIQMVEEMAMVENDTKARAAVYKRTSAMLSEIITEDREHLSLIQRHGWQGTEEGKHTGNMADEPETKPSSTSGGLVPRGSSGMILIIYAHPYPHHSHANKRMLEQARTLEGVEIRSLYQLYPDFNIDIAAEQEALSRADLIVWQHPMQWYSIPPLLKLWIDKVFSHGWAYGHGGTALHGKHLLWAVTTGGGESHFEIGAHPGFDVLSQPLQATAIYCGLNWLPPFAMHCTFICDDETLEGQARHYKQRLLEWQEAHHG”, the “soluble on expression in E. coli” value is reported as “soluble”. For “GSHMAARRGALIVLEGVDGAGKSTQSRKLVEALCAAGHRAELLRFPERSTEIGKLLSSYLQKKSDVEDHSVHLLFSANRWEQVPLIKEKLSQGVTLVVDRYAFSGVAFTGAKENFSLDWCKQPDVGLPKPDLVLFLQLQLADAAKRGRARGELERYENGAFQERALRCFHQLMKDTTLNWKMVDASKSIEAVHEDIRVLSEDAIATATEKPLGELWK”, the “soluble on expression in E. coli” value was “soluble”. In the case of “GSHMAEPQRHKILCVCCKCDGRIELTVESSAEDLRTLQQLFLSTLSFVCPWCATNQ”, the “soluble on expression in E. coli” value is reported as “soluble”. In the case of “GSHMASMTGGQQMGRGSMKFSFELAVNTKKEDAWTYYSQVNQWFVWEGDLEQISLEGEFTTGQKGKMKMEDMPELAFTLVEVRENQCFSDLTATPFGNVLFEHEILENPDGTISLRHSVSLTDSDTTEEALAFLKQIFADVPESVGKLKQILETV”, the “soluble on expression in E. coli” value is reported as “soluble”. With “GSHMDSEIQMENLVERKHHRLARSERSGISDRDAKPTASIRDQLHTIVYRYPPTYVLSSEEQDLVWKFRFYLSSHKKALTKFLKCINWKLEDEVTQALWMLANWAPMDVEDALELLSPTFTHPQVRKYAVSRLAQAPDEDLLLYLLQLVQALKYEDPRHIVHLHGCIFPERDVVRSILDDNGSLLDQSSLSDLSATSSGLHASVIPANQRAASVLAAIKSDKSVSPGSAGGSGSGGQGSVALPNPSAPATPGSSSLPCDSNSNALMLAEGISFGSVPANLCTFLIQRACTNATLANYFYWYLSIEVEEVESVRKQDERAHDMYAMVLKMFLKVLENGNFNLRGIFYNLRKQRRFIDELVKLVKLVAKEPGNRNKKTEKFQKLLAEQDMFKVNFTNFEPIPFPLDPEIYITKIVPMRTSLFKSALMPAKLTFVTSIAHHEYAAIFKHGDDLRQDQLILQMITLMDKLLRRENLDLKLTPYKVLATSSKHGFLQYVDSCTVAEVLAREGNIHNFFRKHHPCDNGPYGISAEVMDTYIKSCAGYCVITYLLGVGDRHLDNLLLTTNGKLFHIDFGYILGRDPKPMPPPMKLSKEMVEAMGGISSEHHHEFRKQCYTAYLHLRRHANVMLNLFSLMVDATVPDIALEPDKAVKKVEENLQLGLTDEEAVQHLQSLLDVSITAVMPALVEQIHRFTQYWRK” the “soluble on expression in E. coli” value was “soluble”.
